Experimental findings from PMC5064372 are described below.

Test [1] deals with catalytically inactive mouse neutrophil elastase (Ser195Ala) with a C-terminal cysteine tag, fluorescently labelled (mouse). Briefly: MST; AAT serially diluted (titrated), 5 nM fluorescently labelled inactive NE, in 7.5% plasma pool from individuals with high FEV1 (>=80%, n = 8); storage buffer (20 mM Na2HPO4, 300 mM NaCl pH 7.4) with Tween 20, 22 °C, 2 h incubation; global fit of four measurements.

Test [2] has the same target. Briefly: MST; AAT serially diluted (titrated), 5 nM fluorescently labelled inactive NE, in 7.5% plasma pool from individuals with low FEV1 (<=50%, n = 12); storage buffer (20 mM Na2HPO4, 300 mM NaCl pH 7.4) with Tween 20, 22 °C, 2 h incubation; global fit of four measurements.

With “recombinant Z-variant alpha-1-antitrypsin (Glu342Lys) with three stabilizing mutations (Met374Ile, Ser381Ala, Lys387Arg) on the M1(Ala213) background (from UniProt P01009 25-418) (natural protein)”, the dissociation constant Kd in test [1] stood at 500 nM; in test [2], 1300 nM.
